Consider three molecules from patent publication US20140093973A1 (BOARD OF REGENTS OF THE UNIVERSITY OF OKLAHOMA, published 2014).

The target of test [1] is T1, soluble HLA-B*4001 (human).
T1 construct: Member of the panel of 53 single-specificity sHLA
Description: FP screen of 53 sHLA.

In test [2] the target is T2, soluble HLA-B*4402 (human).
T2 construct: Member of the panel of 53 single-specificity sHLA
Description: FP screen.

The target in test [3] is T3, soluble HLA-A*4301 (sHLA-A*4301) (human).
T3 construct: Recombinant soluble class I with endogenous peptides, made as m1
Description: FP screen.

Test [4] concerns the target T4, soluble HLA-B*2705 (sHLA-B*2705) (human).
T4 construct: Recombinant soluble class I with endogenous peptides, made as m1; negative control
Put plainly: FP screen.

For test [5], the target named is T5, soluble HLA-A*3402 (human).
T5 construct: Member of the panel of 53 single-specificity sHLA
Description: FP screen.

The target in test [6] is soluble HLA-A*0201 (sHLA-A*0201) (human). Put plainly: FP screen.
The target of test [7] is T6, soluble HLA-B*1512 (human).
T6 construct: Member of the panel of 53 single-specificity sHLA
Description: FP screen.

Test [8] has as its target T7, soluble HLA-A*3601 (human).
T7 construct: Member of the panel of 53 single-specificity sHLA
Put plainly: FP screen.

The target of test [9] is T8, soluble HLA-A*6801 (sHLA-A*6801) (human).
T8 construct: Recombinant soluble class I with endogenous peptides, made as m1
Description: FP screen.

The target of test [10] is T9, soluble HLA-A*2902 (human).
T9 construct: Member of the panel of 53 single-specificity sHLA
Description: FP screen.

The target in test [11] is T10, soluble HLA-A*2402 (human).
T10 construct: Member of the panel of 53 single-specificity sHLA
Put plainly: FP screen.

Test [12] has as its target T11, soluble HLA-A*2601 (human).
T11 construct: Member of the panel of 53 single-specificity sHLA
Description: FP screen.

The target of test [13] is T12, soluble HLA-A*6601 (human).
T12 construct: Member of the panel of 53 single-specificity sHLA
Put plainly: FP screen.

Test [14] concerns the target T13, soluble HLA-A*6901 (sHLA-A*6901) (human).
T13 construct: Recombinant soluble class I with endogenous peptides, made as m1
Description: FP screen.

Test [15] concerns the target T14, soluble HLA-A*0301 (human).
T14 construct: Member of the panel of 53 single-specificity sHLA
Description: FP screen.

The target of test [16] is T15, soluble HLA-B*4501 (human).
T15 construct: Member of the panel of 53 single-specificity sHLA
Description: FP screen.

Test [17] deals with T16, soluble HLA-B*1302 (human).
T16 construct: Member of the panel of 53 single-specificity sHLA
Description: FP screen.

Test [18] deals with T17, soluble HLA-A*2301 (human).
T17 construct: Member of the panel of 53 single-specificity sHLA
Put plainly: FP screen.

In test [19] the target is T18, soluble HLA-A*1102 (sHLA-A*1102) (human, UniProt P04439 25-308; P61769 21-119).
T18 construct: Recombinant soluble class I with endogenous peptides, made as m1
Put plainly: FP screen.

Test [20] concerns the target T19, soluble HLA-A*3002 (human).
T19 construct: Member of the panel of 53 single-specificity sHLA
Description: FP screen.

Test [21] concerns the target T20, soluble HLA-B*1501 (human).
T20 construct: Member of the panel of 53 single-specificity sHLA
Description: FP screen of 53 sHLA with FITC-peptide.

The target of test [22] is T21, soluble HLA-B*1801 (human).
T21 construct: Member of the panel of 53 single-specificity sHLA
Description: FP screen of 53 sHLA with FITC-peptide.

Test [23] deals with T2, soluble HLA-B*4402. Put plainly: FP screen of 53 sHLA.
Test [24] deals with T1, soluble HLA-B*4001. Put plainly: FP screen of 53 sHLA with FITC-peptide.
For test [25], the target named is T22, soluble HLA-B*4002 (human).
T22 construct: Member of the panel of 53 single-specificity sHLA
Description: FP screen of 53 sHLA with FITC-peptide.

Test [26] addresses T9, soluble HLA-A*2902. Put plainly: FP screen of 53 sHLA with FITC-peptide.
Test [27] addresses T10, soluble HLA-A*2402. Description: FP screen of 53 sHLA with FITC-peptide.
Test [28] concerns the target T12, soluble HLA-A*6601. Description: FP screen of 53 sHLA with FITC-peptide.
For test [29], the target named is T15, soluble HLA-B*4501. Put plainly: FP screen of 53 sHLA with FITC-peptide.
In test [30] the target is T17, soluble HLA-A*2301. Description: FP screen of 53 sHLA with FITC-peptide.
Test [31] addresses T20, soluble HLA-B*1501. Put plainly: FP screen of 53 sHLA with FITC-peptide. This is another data set of the same source.
Test [32] has as its target T2, soluble HLA-B*4402. Description: FP screen. The source holds these as a separate data set.
Test [33] addresses T3, soluble HLA-A*4301 (sHLA-A*4301). Description: FP screen. This is another data set of the same source.
The target of test [34] is T4, soluble HLA-B*2705 (sHLA-B*2705). Description: FP screen. The source holds these as a separate data set.
For test [35], the target named is T5, soluble HLA-A*3402. Put plainly: FP screen. The source holds these as a separate data set.
Test [36] concerns the target soluble HLA-A*0201 (sHLA-A*0201) (human). Put plainly: FP screen. This is another data set of the same source.
Test [37] addresses T6, soluble HLA-B*1512. Description: FP screen. The source holds these as a separate data set.
The target in test [38] is T7, soluble HLA-A*3601. Description: FP screen. The source holds these as a separate data set.
The target of test [39] is T8, soluble HLA-A*6801 (sHLA-A*6801). Description: FP screen. This is another data set of the same source.
Test [40] addresses T11, soluble HLA-A*2601. Put plainly: FP screen. The source holds these as a separate data set.
Test [41] deals with T1, soluble HLA-B*4001. Description: FP screen.
Test [42] addresses T13, soluble HLA-A*6901 (sHLA-A*6901). Description: FP screen. The source holds these as a separate data set.
Test [43] concerns the target T14, soluble HLA-A*0301. Put plainly: FP screen. This is another data set of the same source.
Test [44] deals with T16, soluble HLA-B*1302. Put plainly: FP screen. The source holds these as a separate data set.
Test [45] deals with T18, soluble HLA-A*1102 (sHLA-A*1102). Description: FP screen. This is another data set of the same source.
Test [46] deals with T23, soluble HLA-A*0101 (human).
T23 construct: Member of the panel of 53 single-specificity sHLA
Description: FP screen.

In test [47] the target is T19, soluble HLA-A*3002. Description: FP screen. This is another data set of the same source.
The target in test [48] is T22, soluble HLA-B*4002. Put plainly: FP screen.
Test [49] has as its target T21, soluble HLA-B*1801. Put plainly: FP screen.

Like-named read-outs stand apart in the source and are kept apart here. Ends that are not written are not given here.

B1: EEKLIVKQY, FITC-labeled B44-like peptide (peptide)
peptide: EEKLIVKQY
modifications: also: FITC-labeled, position not given here
Turning to B1, the binding result in test [1] is recorded as “binds”; in test [2], “no binding (tested: 100 ug/ml sHLA)”; in test [3] it was “no binding (tested: 100 ug/ml sHLA)”; in [4], “no binding (tested: 100 ug/ml sHLA)”; in [5], “no binding (tested: 100 ug/ml sHLA)”; in test [6] it was “no binding (tested: 100 ug/ml sHLA)”. Further, the binding result in [7], in test [8], in [9], in test [10], in test [11] and in test [12] was “no binding (tested: 100 ug/ml sHLA)” in each case. Besides, the binding result in test [13], in [14], in test [15], in test [16], in [17] and in [18] was “no binding (tested: 100 ug/ml sHLA)” each time. Also, the binding result in test [19] is given as “no binding (tested: 100 ug/ml sHLA)”; in test [20], “no binding (tested: 100 ug/ml sHLA)”; in test [21] it was “binds”; in [22], “binds”.

B2: AELLAAKF, FITC-labeled B44-like peptide (peptide)
peptide: AELLAAKF
modifications: also: FITC-labeled, position not given here
Turning to B2, the binding result in test [23] is listed as “no binding (tested: 2 nM peptide, 100 ug/ml activated sHLA)”; in [24], “binds”; in test [25], “binds”; in test [22], “binds”.

B3: QYSWFKNGTF, FITC-labeled A24-like peptide (peptide)
peptide: QYSWFKNGTF
modifications: not fully specified; also: FITC-labeled, position not given here
Regarding B3, the binding result in test [26], in test [27], in test [28], in [29], in test [30] and in test [31] was “binds” in each case. In addition, the binding result in [32], in test [33], in test [34], in test [35], in [36] and in test [37] was “no binding (tested: 100 ug/ml sHLA)” throughout. Moreover, the binding result in test [38], in test [39], in test [40], in [41], in [42] and in test [43] was “no binding (tested: 100 ug/ml sHLA)” throughout. For the same molecule, the binding result in test [44], in [45], in test [46], in test [47], in test [48] and in test [49] was “no binding (tested: 100 ug/ml sHLA)” each time.
